{
  "source": "patent US9567577B2",
  "about": "“Expression vector comprising a polynucleotide encoding a modified glutamine synthetase and a method for preparing a target protein employing the same” (ARES TRADING S.A., priority 2012, dated 2017)",
  "system": "CHO K-1 cells",
  "test": "TNFR-Fc expression level by ELISA of culture broth of CHO K-1 cells transfected with the expression vectors",
  "type": "cell-based",
  "settings": "inferred from TNFR-Fc expression under MSX",
  "procedure": "In order to compare the productivity of TNFR-Fc fusion protein between the GS and DHFR gene expression systems, each of the expression vectors constructed in Example 4 was introduced into CHO K-1 cells so as to prepare each transformant.\nIn detail, CHO K-1 cells were cultured in a DMEM/F12 medium supplemented with 10% FBS, and 3 to 4×10^5 cells/well were inoculated into a 6 well-plate, followed by cultivation overnight. When the cells reached 80 to 90% confluence, each of the expression vectors was introduced thereto.\nTo achieve this, 4 μg of each of the expression vectors constructed in Example 4 and 250 μl of Opti-MEM were mixed with each other, and separately, 10 μl of Lipofectamine 2000 (Invitrogen) and 250 μl of Opti-MEM were mixed with each other. Then, each mixture was left at room temperature for 5 minutes. Subsequently, the mixtures were mixed with each other, and left at room temperature for 20 minutes.\nThereafter, the culture medium in the 6-well plate was replaced with 2 ml of Opti-MEM I media, and 500 μl of the final mixture was added to each well of the 6-well plate, followed by cultivation at 37° C. for 4 to 6 hours. The medium was replaced with the original culture medium (DMEM/F12 medium supplemented with 10% FBS), followed by further cultivation overnight. […]",
  "data": [
    {"molecule": "modified GS protein: hamster glutamine synthetase (SEQ ID NO. 4) with glycine at position 299 substituted with arginine (protein, listed as Cricetulus longicaudatus) MATSASSHLNKNIKQMYLCLPQGEKVQAMYIWVDGTGEGLRCKTRTLDCEPKCVEELPEWNFDGSSTFQSEGSNSDMYLSPVAMFRDPFRRDPNKLVFCEVFKYNRKPAETNLRHSCKRIMDMVSNQHPWFGMEQEYTLMGTDGHPFGWPSNGFPGPQGPYYCGVGADKAYGRDIVEAHYRACLYAGVKITGTNAEVMPAQWEFQIGPCEGIRMGDHLWVARFILHRVCEDFGVIATFDPKPIPGNWNGAGCHTNFSTKAMREENGLKHIEEAIEKLSKRHRYHIRAYDPKGGLDNARRLTGFHETSNINDFSAGVANRSASIRIPRTVGQEKKGYFEDRRPSANCDPFAVTEAIVRTCLLNETGDEPFQYKN", "values": [
      {"measurement": "sensitivity to GS inhibitors compared with wildtype GS protein", "result": "enhanced sensitivity"}
    ]}
  ]
}
